Here are results for 1 substance from patent publication US9730980B2.

In this assay the target is NR1D1 (pCDNA-Nr1d1 expression vector).

Turning to r-h-apoA-IV, the luciferase activity driven by the human G6pase promoter turned out to be 14.5%.
